Measured values: patent US20240368242A1

Molecular target: recombinant murine CD40 protein (murine) (UniProt P27512)
Test: SPR, binding to mCD40

recombinant murine CD40 protein (murine), sequence (P27512 24-193 limits assumed): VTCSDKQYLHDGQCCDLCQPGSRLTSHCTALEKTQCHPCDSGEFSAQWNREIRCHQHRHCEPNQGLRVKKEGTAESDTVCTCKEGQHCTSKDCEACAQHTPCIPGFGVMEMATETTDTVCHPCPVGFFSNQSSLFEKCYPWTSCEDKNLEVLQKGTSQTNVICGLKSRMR

B1: mCD40L-Fc (Fc fusion, from a related filing)
chain: MQRGDEDPQIAAHVVSEANSNAASVLQWAKKGYYTMKSNLVMLENGKQLTVKREGLYYVYTQVTFCSNREPSSQRPFIVGLWLKPSSGSERILLKAANTHSSSQLCEQQSVHLGGVFELQAGASVFVNVTEASQVIHRVGFSSFGLLKL
modifications: left off: a dimerising Fc or GST
Kd: 3.23 nM | koff: 9.81e-05 s⁻¹ | kon: 30400 M⁻¹ s⁻¹
